Measured values as given in patent US20210122813A1 (Kyowa Kirin, published 2021).
Substitutions are numbered along the chain they refer to. Like-named read-outs stand apart in the source and are kept apart here.

T1: human BMP10 mature dimer (manufactured by R & D Systems, Inc., Cat #2926-BP) (human, UniProt O95393 317-424)
T1 construct: Bought product; also called human mature BMP10; mature BMP10
T1 sequence: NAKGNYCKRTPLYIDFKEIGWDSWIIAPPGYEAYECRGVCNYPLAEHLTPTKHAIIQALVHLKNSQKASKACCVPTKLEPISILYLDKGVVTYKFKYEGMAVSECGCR

B1: 18C1 chimeric antibody (antibody, V domains shown)
VH: QVQLKETGPDLVQLTQTLSITCTVSGFSLTTYNVHWVRQPPGKGLEWMGTMWNGGGIDYNSAFKSRLSISRDTSKSQVFLKMNSLQTDDTAKYFCARLGYYVDYWGHGIMVTVSS
VL: QFVLIQSNSMSTSLGSTVKLSCKRSTGNIGSSYVYWYQQHEGRSPTTMIYDGDKRPDGVPDRFSGSIDSSSNSAFLTINNVQIEDEAIYFCQSFSSGIKFIFGGGTKLTVL
notes: also called ch18C1 antibody; ch18C1
B2: VLres04HVmut04 (antibody, V domains shown)
VH: QVQLQESGPDLVQPSQTLDITCTVSGFSLTTYNVHWVRQPPGKGLEWMGTMWNGGGIDYNSAFKSRLAISRDTSKNEVFLKMDSLQTDDTAKYFCARLGYYVDYWGQGILVTVSS
VL: B1 VL with V3A, N8D, L14A, F75S, N80D, I88V
notes: Humanized 18C1 antibody; also called VLres04HVmut04 antibody; hz18C1 antibody
B3: 12H3 chimeric antibody (antibody, V domains shown)
VH: B1 VH with T30S, T50A, D58N, L98F, Y101G, V102F, H107Q, I109V
VL: ETVMTQSPTSMSTSIGERVTLNCKASQSVGINVDWYQRTPGQSPKLLIHGASNRHTGVPDRFTGSGFGRDFTLTISNVEAEDLTIYYCLQYGSIPLTFGAGTKLELI
notes: also called ch12H3 antibody
B4: 11H10 chimeric antibody (antibody, V domains shown)
VH: B1 VH with T50A, I57T, G99A, Y100E, Y101G, V102F, H107Q, I109V
VL: DTVMTQSPASMSTSVGERVTVNCKASQSVGTVVAWFQQKPGQSPKRLIYLATNRHTGVPDRFTGSGFGRDFTLTISNVEAEDLAVYYCLQYGSIPFTFGSGTKLEIK
notes: also called ch11H10 antibody
B5: VLres02HVmut07 (antibody, V domains shown)
VH: B2 VH with S65D, E77Q, F79S
VL: B1 VL with N8D, L14A, F75S, N80D, I88V
notes: Humanized 18C1 antibody; also called hz18C1 antibody; anti-BMP10 humanized antibody
B6: VLres08VHres16 (antibody, V domains shown)
VH: B2 VH with Q5K, S7T, S15T, N76S, L110M
VL: B1 VL with V3A, N8D, L14A, F75S, N80D, I83V
notes: Humanized 18C1 antibody; also called VLres08VHres16 antibody; hz18C1 antibody
B7: VLres10HVmut10 (antibody, V domains shown)
VH: B2 VH with S65D, K92V
VL: B1 VL with N8D, L14A, F75S, I88V
notes: Humanized 18C1 antibody; also called VLres10HVmut10 antibody; hz18C1 antibody
B8: VLres14HVmut10 (antibody, V domains shown)
VH: B2 VH with S65D, K92V
VL: B1 VL with N8D, L14A, N80D, I88V
notes: Humanized 18C1 antibody; also called VLres14HVmut10 antibody; hz18C1 antibody
B9: VLres07VHres16 (antibody, V domains shown)
VH: B2 VH with Q5K, S7T, S15T, N76S, L110M
VL: B1 VL with V3A, N8D, K19T, F75S, N80D, I83V
notes: Humanized 18C1 antibody; also called VLres07VHres16 antibody; hz18C1 antibody
B10: VLres10HVmut08 (antibody, V domains shown)
VH: B2 VH with Q13K, S65D, A68T, E77Q, K92V
VL: B1 VL with N8D, L14A, F75S, I88V
notes: as for B5
B11: VLres08HVmut08 (antibody, V domains shown)
VH: B2 VH with Q13K, S65D, A68T, E77Q, K92V
VL: B1 VL with V3A, N8D, L14A, F75S, N80D, I83V
notes: as for B5
B12: VLres14HVmut07 (antibody, V domains shown)
VH: B2 VH with S65D, E77Q, F79S
VL: B1 VL with N8D, L14A, N80D, I88V
notes: as for B5
B13: VLres06HVmut02 (antibody, V domains shown)
VH: B2 VH with Q13K, A68T, E77Q
VL: B1 VL with N8D, L14A, F75S, N80D, I83V
notes: as for B5
B14: VLres04VHres16 (antibody, V domains shown)
VH: B2 VH with Q5K, S7T, S15T, N76S, L110M
VL: B1 VL with V3A, N8D, L14A, F75S, N80D, I88V
notes: Humanized 18C1 antibody; also called VLres04VHres16 antibody; hz18C1 antibody
B15: VLres10HVmut02 (antibody, V domains shown)
VH: B2 VH with Q13K, A68T, E77Q
VL: B1 VL with N8D, L14A, F75S, I88V
notes: Humanized 18C1 antibody; also called VLres10HVmut02 antibody; hz18C1 antibody
B16: VLres10HVmut04 (antibody, V domains shown)
VH: B2 VH
VL: B1 VL with N8D, L14A, F75S, I88V
notes: as for B5
B17: VLres10VHres16 (antibody, V domains shown)
VH: B2 VH with Q5K, S7T, S15T, N76S, L110M
VL: B1 VL with N8D, L14A, F75S, I88V
notes: Humanized 18C1 antibody; also called VLres10VHres16 antibody; hz18C1 antibody
B18: VLres07HVmut10 (antibody, V domains shown)
VH: B2 VH with S65D, K92V
VL: B1 VL with V3A, N8D, K19T, F75S, N80D, I83V
notes: Humanized 18C1 antibody; also called VLres07HVmut10 antibody; hz18C1 antibody
B19: VLres02HVmut08 (antibody, V domains shown)
VH: B2 VH with Q13K, S65D, A68T, E77Q, K92V
VL: B1 VL with N8D, L14A, F75S, N80D, I88V
notes: as for B5
B20: VLres06HVmut10 (antibody, V domains shown)
VH: B2 VH with S65D, K92V
VL: B1 VL with N8D, L14A, F75S, N80D, I83V
notes: as for B5
B21: VLres16VHres16 (antibody, V domains shown)
VH: B2 VH with Q5K, S7T, S15T, N76S, L110M
VL: B1 VL with V3A, N8D, L14A, N80D, I88V
notes: Humanized 18C1 antibody; also called VLres16VHres16 antibody; hz18C1 antibody
B22: VLres08HVmut04 (antibody, V domains shown)
VH: B2 VH
VL: B1 VL with V3A, N8D, L14A, F75S, N80D, I83V
notes: as for B5
B23: VLres16HVmut10 (antibody, V domains shown)
VH: B2 VH with S65D, K92V
VL: B1 VL with V3A, N8D, L14A, N80D, I88V
notes: as for B5
B24: VLres14VHres16 (antibody, V domains shown)
VH: B2 VH with Q5K, S7T, S15T, N76S, L110M
VL: B1 VL with N8D, L14A, N80D, I88V
notes: Humanized 18C1 antibody; also called VLres14VHres16 antibody; hz18C1 antibody
B25: VLres14HVmut08 (antibody, V domains shown)
VH: B2 VH with Q13K, S65D, A68T, E77Q, K92V
VL: B1 VL with N8D, L14A, N80D, I88V
notes: as for B5
B26: VLres16HVmut07 (antibody, V domains shown)
VH: B2 VH with S65D, E77Q, F79S
VL: B1 VL with V3A, N8D, L14A, N80D, I88V
notes: as for B5

Legend:
[1] = molecular target: human BMP10 mature dimer (manufactured by R & D Systems, Inc., Cat #2926-BP) (human) (UniProt O95393); assay: SPR (Biacore T100), antibody captured by anti-mouse IgG, human BMP10 mature dimer as analyte
[2] = molecular target: T1, human BMP10 mature dimer (manufactured …); assay: SPR (Biacore T100), antibody captured by anti-human IgG, human BMP10 mature dimer as analyte
Experimental: (§1) Further, subsequently, human mature BMP10 prepared at 5 concentrations by 3-fold serial dilution from 300 ng/mL was added thereto at a flow rate of 30 μL/min, and a binding reaction was monitored for 1 minute and a dissociation reaction was monitored for 30 minutes. The obtained sensorgram was analyzed using Bia Evaluation Software (manufactured by GE Healthcare Bio-Sciences Corporation), and the kinetic constant of each antibody was calculated.

[3] = molecular target: T1, human BMP10 mature dimer (manufactured …); assay: as above; remark: listed apart in the source
Experimental: (§2) The binding activity of the anti-BMP10 antibody was measured as follows. An anti-human IgG antibody was immobilized on a CMS sensor chip (manufactured by GE Healthcare Bio-Sciences, Inc., BR100530) using Human Antibody Capture Kit (manufactured by GE Healthcare Bio-Sciences Corporation, Cat #BR-1008-39) according to the attached protocol. To a flow cell in which the anti-human IgG antibody was immobilized, the antibody prepared at 5 μg/mL was added at a flow rate of 10 μL/min for 10 seconds.
as §1, with “Subsequently, human” for “Further, subsequently, human”, “from the 100” for “from 300”, “for 10” for “for 30”, “calculated. The calculated association rate constant (ka), dissociation rate constant (kd), and dissociation constant [kd/ka=KD] of each antibody are shown in Table 4.” for “calculated.”

[4] = molecular target: T1, human BMP10 mature dimer (manufactured …); assay: SPR (Biacore T100), antibody captured by anti-human IgG, human BMP10 mature dimer as analyte; 100 ng/mL top concentration, 10 minutes dissociation (Example 13, Table 4)
Experimental: as §2
as §1, with “Subsequently, human” for “Further, subsequently, human”, “from the 100” for “from 300”, “for 10” for “for 30”, “calculated. The calculated association rate constant (ka), dissociation rate constant (kd), and dissociation constant [kd/ka=KD] of each antibody are shown in Table 4.” for “calculated.”

Molecule | Kd [3] | other results
MAB2926 (clone No. 462732, R & D Systems, Inc.) (antibody) |  | Kd [1]: 33.1 pM
B1 | 2.62 pM | Kd [2]: 2.62 pM; kon [4]: 3.88e+07 M⁻¹ s⁻¹
B2 | 3.19 pM | 
B3 |  | Kd [2]: 11.8 pM
B4 |  | Kd [2]: 6.26 pM
B5 | 2.97 pM | 
B6 | 3.25 pM | 
B7 | 2.19 pM | 
B8 | 2.84 pM | 
B9 | 3.11 pM | 
B10 | 3.06 pM | 
B11 | 2.99 pM | 
B12 | 2.99 pM | 
B13 | 3.37 pM | 
B14 | 3.21 pM | 
B15 | 3.41 pM | 
B16 | 3.2 pM | 
B17 | 3.57 pM | 
B18 | 2.69 pM | 
B19 | 3.05 pM | 
B20 | 2.94 pM | 
B21 | 3.69 pM | 
B22 | 2.88 pM | 
B23 | 2.88 pM | 
B24 | 3.3 pM | 
B25 | 2.71 pM | 
B26 | 3.19 pM | 
